Source: patent US20260049138A1 (Chugai, published 2026)
Residue numbers refer to the chain shown, from its start. Numbers in names are those of the source.

B1: CE115HA000 H96P one-arm antibody (antibody, human IgG1, kappa, L234A L235A, N297A, name in Kabat numbering)
heavy: QVQLVESGGGVVQPGRSLRLSCAASGFTFSNAWMHWVRQAPGKGLEWVAQIKAKSNNYATYYAESVKGRFTISRDDSKNSLYLQMNSLKTEDTAVYYCRYVPYGAYYGVDAWGQGTTVTVSSASTKGPSVFPLAPSSKSTSGGTAALGCLVKDYFPEPVTVSWNSGALTSGVHTFPAVLQSSGLYSLSSVVTVPSSSLGTQTYICNVNHKPSNTKVDKKVEPKSCDKTHTCPPCPAPEAAGGPSVFLFPPKPKDTLMISRTPEVTCVVVDVSHEDPEVKFNWYVDGVEVHNAKTKPREEQYASTYRVVSVLTVLHQDWLNGKEYKCKVSNKALPAPIEKTISKAKGQPREPQVYTLPPSRCELTKNQVSLSCAVKGFYPSDIAVEWESNGQPENNYKTTPPVLDSDGSFFLVSKLTVDKSRWQQGNVFSCSVMHEALHNHYTQKSLSLSPDYKDDDDK
chain: EPKSSDKTHTCPPCPAPELLGGPSVFLFPPKPKDTLMISRTPEVTCVVVDVSHEDPEVKFNWYVDGVEVHNAKTKPREEQYNSTYRVVSVLTVLHQDWLNGKEYKCKVSNKALPAPIEKTISKAKGQPREPQVCTLPPSRDELTKNQVSLWCLVKGFYPSDIAVEWESNGQPENNYKTTPPVLDSDGSFFLYSKLTVDKSRWQQGNVFSCSVMHEALHNRYTQKSLSLSP
light: DIVMTQSPLSLPVTPGEPASISCRSSQSLVHSNRNTYLHWYQQKPGQAPRLLIYKVSNRFSGVPDRFSGSGSGTDFTLKISRVEAEDVGVYYCGQGTQVPYTFGQGTKLEIKRTVAAPSVFIFPPSDEQLKSGTASVVCLLNNFYPREAKVQWKVDNALQSGNSQESVTEQDSKDSTYSLSSTLTLSKADYEKHKVYACEVTHQGLSSPVTKSFNRGEC
B2: CE115HA000 K52F one-arm antibody (antibody, human IgG1, kappa, L234A L235A, N297A, name in Kabat numbering)
heavy: B1 heavy with K52F, P102H
chain: B1 chain
light: B1 light
B3: CE115HA000 K52N one-arm antibody (antibody, human IgG1, kappa, L234A L235A, N297A, name in Kabat numbering)
heavy: B1 heavy with K52N, P102H
chain: B1 chain
light: B1 light
B4: CE115HA000 K52W one-arm antibody (antibody, human IgG1, kappa, L234A L235A, N297A, name in Kabat numbering)
heavy: B1 heavy with K52W, P102H
chain: B1 chain
light: B1 light
B5: CE115HA000 K52H one-arm antibody (antibody, human IgG1, kappa, L234A L235A, N297A, name in Kabat numbering)
heavy: B1 heavy with K52H, P102H
chain: B1 chain
light: B1 light
B6: CE115HA000 K52I one-arm antibody (antibody, human IgG1, kappa, L234A L235A, N297A, name in Kabat numbering)
heavy: B1 heavy with K52I, P102H
chain: B1 chain
light: B1 light
B7: CE115HA000 K52bY one-arm antibody (antibody, human IgG1, kappa, L234A L235A, N297A, name in Kabat numbering)
heavy: B1 heavy with K54Y, P102H
chain: B1 chain
light: B1 light
B8: CE115HA000 K52bA one-arm antibody (antibody, human IgG1, kappa, L234A L235A, N297A, name in Kabat numbering)
heavy: B1 heavy with K54A, P102H
chain: B1 chain
light: B1 light
B9: CE115HA000 K64Q one-arm antibody (antibody, human IgG1, kappa, L234A L235A, N297A, name in Kabat numbering)
heavy: B1 heavy with K67Q, P102H
chain: B1 chain
light: B1 light
B10: CE115HA000 K64A one-arm antibody (antibody, human IgG1, kappa, L234A L235A, N297A, name in Kabat numbering)
heavy: B1 heavy with K67A, P102H
chain: B1 chain
light: B1 light
B11: CE115HA000 K43Q one-arm antibody (antibody, human IgG1, kappa, L234A L235A, N297A, name in Kabat numbering)
heavy: B1 heavy with K43Q, P102H
chain: B1 chain
light: B1 light
B12: CE115HA000 K52R one-arm antibody (antibody, human IgG1, kappa, L234A L235A, N297A, name in Kabat numbering)
heavy: B1 heavy with K52R, P102H
chain: B1 chain
light: B1 light
B13: CE115HA000 H96S one-arm antibody (antibody, human IgG1, kappa, L234A L235A, N297A, name in Kabat numbering)
heavy: B1 heavy with P102S
chain: B1 chain
light: B1 light
B14: CE115HA000 K64D one-arm antibody (antibody, human IgG1, kappa, L234A L235A, N297A, name in Kabat numbering)
heavy: B1 heavy with K67D, P102H
chain: B1 chain
light: B1 light
B15: CE115HA000 K52bL one-arm antibody (antibody, human IgG1, kappa, L234A L235A, N297A, name in Kabat numbering)
heavy: B1 heavy with K54L, P102H
chain: B1 chain
light: B1 light
B16: CE115HA000 K52bR one-arm antibody (antibody, human IgG1, kappa, L234A L235A, N297A, name in Kabat numbering)
heavy: B1 heavy with K54R, P102H
chain: B1 chain
light: B1 light
B17: CE115HA000 I51D one-arm antibody (antibody, human IgG1, kappa, L234A L235A, N297A, name in Kabat numbering)
heavy: B1 heavy with I51D, P102H
chain: B1 chain
light: B1 light
B18: CE115HA000 I51E one-arm antibody (antibody, human IgG1, kappa, L234A L235A, N297A, name in Kabat numbering)
heavy: B1 heavy with I51E, P102H
chain: B1 chain
light: B1 light
B19: CE115HA000 K52bS one-arm antibody (antibody, human IgG1, kappa, L234A L235A, N297A, name in Kabat numbering)
heavy: B1 heavy with K54S, P102H
chain: B1 chain
light: B1 light
B20: CE115HA000 K52D one-arm antibody (antibody, human IgG1, kappa, L234A L235A, N297A, name in Kabat numbering)
heavy: B1 heavy with K52D, P102H
chain: B1 chain
light: B1 light
B21: CE115HA000 H96Y one-arm antibody (antibody, human IgG1, kappa, L234A L235A, N297A, name in Kabat numbering)
heavy: B1 heavy with P102Y
chain: B1 chain
light: B1 light
B22: CE115HA000 H96Q one-arm antibody (antibody, human IgG1, kappa, L234A L235A, N297A, name in Kabat numbering)
heavy: B1 heavy with P102Q
chain: B1 chain
light: B1 light
B23: CE115HA000 K52bQ one-arm antibody (antibody, human IgG1, kappa, L234A L235A, N297A, name in Kabat numbering)
heavy: B1 heavy with K54Q, P102H
chain: B1 chain
light: B1 light
B24: CE115HA000 K52bD one-arm antibody (antibody, human IgG1, kappa, L234A L235A, N297A, name in Kabat numbering)
heavy: B1 heavy with K54D, P102H
chain: B1 chain
light: B1 light
B25: CE115HA000 K52bN one-arm antibody (antibody, human IgG1, kappa, L234A L235A, N297A, name in Kabat numbering)
heavy: B1 heavy with K54N, P102H
chain: B1 chain
light: B1 light
B26: CE115HA000 K52E one-arm antibody (antibody, human IgG1, kappa, L234A L235A, N297A, name in Kabat numbering)
heavy: B1 heavy with K52E, P102H
chain: B1 chain
light: B1 light
B27: CE115HA000 K43E one-arm antibody (antibody, human IgG1, kappa, L234A L235A, N297A, name in Kabat numbering)
heavy: B1 heavy with K43E, P102H
chain: B1 chain
light: B1 light
B28: CE115HA000 K52Y one-arm antibody (antibody, human IgG1, kappa, L234A L235A, N297A, name in Kabat numbering)
heavy: B1 heavy with K52Y, P102H
chain: B1 chain
light: B1 light
B29: CE115HA000 K64E one-arm antibody (antibody, human IgG1, kappa, L234A L235A, N297A, name in Kabat numbering)
heavy: B1 heavy with K67E, P102H
chain: B1 chain
light: B1 light
B30: CE115HA000 H96R one-arm antibody (antibody, human IgG1, kappa, L234A L235A, N297A, name in Kabat numbering)
heavy: B1 heavy with P102R
chain: B1 chain
light: B1 light
B31: CE115HA000 K52S one-arm antibody (antibody, human IgG1, kappa, L234A L235A, N297A, name in Kabat numbering)
heavy: B1 heavy with K52S, P102H
chain: B1 chain
light: B1 light
B32: CE115HA000 K64S one-arm antibody (antibody, human IgG1, kappa, L234A L235A, N297A, name in Kabat numbering)
heavy: B1 heavy with K67S, P102H
chain: B1 chain
light: B1 light

Target: T1, CD3ε homodimer protein (human, UniProt P07766 23-126, limits assumed, sulfo-tag or biotin label in the ECL assays; amine-coupled to the chip in SPR)
T1 construct: also called human CD3ε homodimer protein; CD3 (CD3ε)
Assay: SPR Biacore T200; CD3ε homodimer on CM4 chip;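 note: Single-residue variant antibodies injected as analyte over CD3ε homodimer immobilized by amine coupling, run at 25 °C in HBS-EP+ buffer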

T1 sequence (P07766 23-126 limits assumed): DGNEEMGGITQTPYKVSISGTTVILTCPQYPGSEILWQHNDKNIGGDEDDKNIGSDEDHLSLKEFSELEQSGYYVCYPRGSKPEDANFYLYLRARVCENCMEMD

Row | Binder | ratio of amounts bound Z=Y/X (altered form / CE115HA000)
1 | B1 | 0.12
2 | B2 | 0.17
3 | B3 | 0.34
4 | B4 | 0.22
5 | B5 | 0.22
6 | B6 | 0.33
7 | B7 | 0.74
8 | B8 | 0.67
9 | B9 | 0.89
10 | B10 | 0.82
11 | B11 | 0.99
12 | B12 | 0.91
13 | B13 | 0.44
14 | B14 | 0.72
15 | B15 | 0.61
16 | B16 | 1.11

Row | Binder | ratio of amounts bound Z=Y/X (altered form / CE115HA000)
17 | B17 | 0.29
18 | B18 | 0.55
19 | B19 | 0.68
20 | B20 | 0.25
21 | B21 | 0.17
22 | B22 | 0.42
23 | B23 | 0.6
24 | B24 | 0.27
25 | B25 | 0.27
26 | B26 | 0.26
27 | B27 | 0.9
28 | B28 | 0.18
29 | B29 | 0.74
30 | B30 | 0.46
31 | B31 | 0.28
32 | B32 | 0.84
